Measurements as given in US20210395356A1 (Chugai, published 2021).
Numbering of substitutions follows the chain as printed.

B1: hT0947AE08-SG191 (antibody, IgG1, V domains shown)
VH: QVQLVESGGGVVQPGRSLRLSCAASGFTFSSYAMNWIRQPPGKGLEWIGYIYTSGTRYRANWARGRFTISRDNSKNTLYLQMNSLRAEDTAVYYCARGTDIYDYYYWVMDLWGPGTLVTVSS
VL: DIQMTQSPSSLSASVGDRVTITCQASQSISTYLAWYQQKPGQPPKLLIYAASTLESGVPSRFSGSGSGTDFTLTISSLQPEDFATYYCQSYSDGDSVGFGQGTKVEIKR
notes: Humanized, optimized IgG1; also called hT0947AE08-5G191
B2: hT0947AE09-SG191 (antibody, IgG1, V domains shown)
VH: B1 VH
VL: B1 VL with G94A
notes: Humanized, optimized IgG1; also called hT0947AE09-5G191; hT0947A09-SG191
B3: hT0947AE04-SG191 (antibody, IgG1, V domains shown)
VH: B1 VH with R57T, R59H, D100F, Y102W
VL: B1 VL with A50K, G94A
notes: Humanized, optimized IgG1

How the values were obtained:
flag-tagged mouse LAP = target: T1, flag-tagged mouse LAP (mouse); assay: ELISA, plate coated with mouse LAP, anti-human IgG-HRP detection
T1 construct: also called recombinant mouse latency associated protein (LAP); mouse latency associated peptide
T1 chain: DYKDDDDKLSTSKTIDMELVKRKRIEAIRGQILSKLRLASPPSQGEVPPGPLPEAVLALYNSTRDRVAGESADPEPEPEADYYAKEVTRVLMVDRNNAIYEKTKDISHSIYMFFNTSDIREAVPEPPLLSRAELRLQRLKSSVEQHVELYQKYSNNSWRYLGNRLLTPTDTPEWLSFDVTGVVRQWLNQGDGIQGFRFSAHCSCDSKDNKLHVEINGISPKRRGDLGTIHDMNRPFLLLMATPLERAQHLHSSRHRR

mouse mature TGF-beta 1 = target: T2, mouse mature TGF-beta 1 (mouse, UniProt P04202 279-390); assay: ELISA, plate coated with mouse mature TGF-beta 1, anti-human IgG-HRP detection
T2 construct: mature
Experimental: (§1) 384-well plate was coated with mouse or human mature TGF-beta 1 for overnight at 4 degree C., and then washed four times with PBS-T. After washing, the plate was blocked with blocking buffer (1×TBS/Tween-20+0.5% BSA+1× Block ace) for at least 1 hour at room temperature, and then washed four times with PBS-T. After washing, an antibody solution was added to the plate and incubated for 2 hours at room temperature, and then washed four times with PBS-T. After washing, diluted secondary antibody (goat anti-human IgG-HRP, Abcam, Cat. ab98624) was added to the plate and incubated for 1 hour at room temperature, and then washed four times with PBS-T. After washing, TMB solution was added to the plate and incubated for 15 minutes at room temperature, then 1N sulfuric acid was added to stop the reaction. The absorbance (optical density; OD) was measured at 450 nm/570 nm.

human mature TGF-beta 1 = target: T3, human mature TGF-beta 1 (human, UniProt P01137 279-390); assay: ELISA, plate coated with human mature TGF-beta 1, anti-human IgG-HRP detection
T3 construct: mature
Experimental: as §1

[1] = target: T4, flag-tagged human latent TGF-beta 1 (human, UniProt P01137 34-390); assay: SPR Biacore 8k, antibody captured by anti-human kappa, latent TGF-beta 1 (SLC) as analyte, 37 C, 1:1 model
T4 construct: Small latent complex: homodimer of LAP and mature TGF-beta 1 held non-covalently; also called human latent TGF-beta 1 (SLC); hSLC
Experimental: (§2) Mouse anti-human Ig kappa light chain antibody (BD Pharmingen) was immobilized onto all flow cells of a CMS sensor chip using amine coupling kit (GE Healthcare). […] All antibodies and analytes were prepared in ACES pH 7.4 containing 20 mM ACES, 150 mM NaCl, 0.05% Tween 20, 0.005% NaN₃. Assay temperature was set at 37 degrees C. Sensor surface was regenerated each cycle with 10 mM Glycine-HCl, pH2.1. Binding activity was determined by processing and fitting the data to 1:1 binding model using Biacore Insight Software, version 1.1.1.7442 (GE Healthcare).

[2] = target: T5, flag-tagged cynomolgus monkey latent TGF-beta 1 (cynomolgus monkey, UniProt P01137 34-390 (human entry), limits assumed); assay: as above
T5 construct: also called monkey latent TGF-beta 1 (SLC); Cyno latent TGF-beta 1
Experimental: as §2

[3] = target: T6, flag-tagged mouse latent TGF-beta 1 (mouse, UniProt P04202 34-390); assay: as above
T6 construct: also called mouse latent TGF-beta 1 (SLC); mSLC
Experimental: as §2

T3 sequence (P01137 279-390 limits assumed): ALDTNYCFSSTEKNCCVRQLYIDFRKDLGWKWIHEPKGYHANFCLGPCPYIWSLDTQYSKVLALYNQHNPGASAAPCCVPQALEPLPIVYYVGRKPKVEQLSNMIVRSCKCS

| Binder | binding result (flag-tagged mouse LAP) | binding result (mouse mature TGF-beta 1) | binding result (human mature TGF-beta 1) | Kd [1] [nM] | koff [1] [s⁻¹] | kon [1] [M⁻¹ s⁻¹] | Kd [2] [nM] | koff [2] [s⁻¹] | kon [2] [M⁻¹ s⁻¹] | Kd [3] [nM] | koff [3] [s⁻¹] | kon [3] [M⁻¹ s⁻¹] |
| --- | --- | --- | --- | --- | --- | --- | --- | --- | --- | --- | --- | --- |
| B1 | binds | no binding (tested: 10 ug/mL) | no binding (tested: 10 ug/mL) | 1.13 | 0.00043 | 381000 | 1 | 0.000326 | 325000 | 1.1 | 0.000319 | 292000 |
| B2 | binds | no binding (tested: 10 ug/mL) | no binding (tested: 10 ug/mL) | 2.15 | 0.000727 | 339000 | 2.24 | 0.000659 | 294000 | 1.6 | 0.000388 | 243000 |
| B3 | binds | no binding (tested: 10 ug/mL) | – | – | – | – | – | – | – | 1.89 | – | – |
